# Data as given in paper doi:10.1101/2022.11.04.515170, “Insights into cargo sorting by SNX32 in neuronal and non-neuronal cells: physiological implications in neurite outgrowth” (bioRxiv, 2022).
# T1: GFP-SNX4 S448R (UniProt O95219 1-450, S448R)
# T1 construct: Sorting nexin 4 (SNX4) with S448R in the BAR domain, by site directed mutagenesis of GFP-tagged SNX4; also called pEGFP SNX4S448R; source: HeLa, transfected, overexpressed, in lysate
# T1 sequence (looked up): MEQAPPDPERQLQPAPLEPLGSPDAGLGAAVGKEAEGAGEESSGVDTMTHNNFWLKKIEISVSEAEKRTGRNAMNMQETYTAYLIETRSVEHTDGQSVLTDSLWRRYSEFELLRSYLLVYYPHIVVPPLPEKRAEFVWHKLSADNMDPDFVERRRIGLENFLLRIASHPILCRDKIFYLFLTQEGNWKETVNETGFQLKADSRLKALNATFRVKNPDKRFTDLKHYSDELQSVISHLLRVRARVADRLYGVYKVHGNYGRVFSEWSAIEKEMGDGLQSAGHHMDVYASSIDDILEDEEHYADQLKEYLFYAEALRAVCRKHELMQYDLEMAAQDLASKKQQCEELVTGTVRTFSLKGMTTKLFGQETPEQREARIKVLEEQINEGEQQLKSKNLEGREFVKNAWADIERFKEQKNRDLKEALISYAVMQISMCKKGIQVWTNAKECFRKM
# T2: GFP-SNX4 Y258E (UniProt O95219 1-450, Y258E)
# T2 construct: Sorting nexin 4 (SNX4) with Y258E in the BAR domain, by site directed mutagenesis of GFP-tagged SNX4; also called pEGFP SNX4Y258E; source: HeLa, transfected, overexpressed, in lysate
# T2 sequence (looked up): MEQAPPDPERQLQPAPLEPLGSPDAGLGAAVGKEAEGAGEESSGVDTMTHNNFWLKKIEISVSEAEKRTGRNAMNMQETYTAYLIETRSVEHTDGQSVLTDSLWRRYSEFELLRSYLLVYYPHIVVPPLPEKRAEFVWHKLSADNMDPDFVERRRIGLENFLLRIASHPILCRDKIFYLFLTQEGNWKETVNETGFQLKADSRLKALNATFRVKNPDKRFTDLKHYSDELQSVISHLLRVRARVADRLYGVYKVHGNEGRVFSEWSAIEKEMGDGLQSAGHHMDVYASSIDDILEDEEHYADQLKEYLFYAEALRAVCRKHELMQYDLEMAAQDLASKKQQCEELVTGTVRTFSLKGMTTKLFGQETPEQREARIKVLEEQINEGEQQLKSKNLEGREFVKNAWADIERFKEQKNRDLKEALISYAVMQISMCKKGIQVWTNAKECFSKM
# T3: GFP-SNX8 (UniProt Q9Y5X2 1-465)
# T3 construct: Sorting nexin 8 (SNX8); source: HEK293T, transfected, overexpressed, in lysate
# T3 sequence (looked up): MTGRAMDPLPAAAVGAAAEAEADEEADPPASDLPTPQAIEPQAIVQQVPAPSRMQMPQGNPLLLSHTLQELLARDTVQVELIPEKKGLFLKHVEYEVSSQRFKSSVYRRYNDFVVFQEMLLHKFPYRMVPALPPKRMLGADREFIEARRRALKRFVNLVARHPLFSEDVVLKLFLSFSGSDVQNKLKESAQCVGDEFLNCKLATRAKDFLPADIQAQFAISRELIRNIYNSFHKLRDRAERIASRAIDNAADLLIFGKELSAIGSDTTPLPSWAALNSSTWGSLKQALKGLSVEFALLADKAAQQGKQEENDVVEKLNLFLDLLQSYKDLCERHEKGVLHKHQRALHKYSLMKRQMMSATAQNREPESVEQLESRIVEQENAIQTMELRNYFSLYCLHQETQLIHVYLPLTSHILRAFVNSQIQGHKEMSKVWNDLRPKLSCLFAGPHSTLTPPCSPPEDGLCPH
# T4: GFP-SNX32 WT (UniProt Q86XE0 1-403)
# T4 construct: Sorting nexin 32 (SNX32), full length; pEGFP C1 SNX32 FL, gift from Prof Peter J Cullen; also called GFP-SNX32 wild type; GFP-tagged SNX32; source: HEK293T or HeLa, transiently transfected, in lysate; SH-SY5Y, lentivirally transduced, stably expressing, in lysate
# T4 sequence (looked up): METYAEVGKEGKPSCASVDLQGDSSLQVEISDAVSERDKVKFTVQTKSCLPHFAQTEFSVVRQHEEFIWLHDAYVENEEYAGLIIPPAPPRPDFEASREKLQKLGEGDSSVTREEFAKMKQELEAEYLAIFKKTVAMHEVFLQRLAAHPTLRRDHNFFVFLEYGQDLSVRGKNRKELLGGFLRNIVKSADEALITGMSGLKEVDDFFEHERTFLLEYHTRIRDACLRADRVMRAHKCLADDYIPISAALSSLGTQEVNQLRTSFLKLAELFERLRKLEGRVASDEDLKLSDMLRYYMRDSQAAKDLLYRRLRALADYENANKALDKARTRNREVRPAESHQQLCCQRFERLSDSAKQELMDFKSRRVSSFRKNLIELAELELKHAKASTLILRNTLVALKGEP
# T5: GFP-SNX4 (UniProt O95219 1-450)
# T5 construct: Sorting nexin 4 (SNX4); pEGFP C1 SNX4, gift from Prof Peter J Cullen; also called GFP-SNX4 WT; source: HEK293T or HeLa, transfected, overexpressed, in lysate
# T5 sequence (looked up): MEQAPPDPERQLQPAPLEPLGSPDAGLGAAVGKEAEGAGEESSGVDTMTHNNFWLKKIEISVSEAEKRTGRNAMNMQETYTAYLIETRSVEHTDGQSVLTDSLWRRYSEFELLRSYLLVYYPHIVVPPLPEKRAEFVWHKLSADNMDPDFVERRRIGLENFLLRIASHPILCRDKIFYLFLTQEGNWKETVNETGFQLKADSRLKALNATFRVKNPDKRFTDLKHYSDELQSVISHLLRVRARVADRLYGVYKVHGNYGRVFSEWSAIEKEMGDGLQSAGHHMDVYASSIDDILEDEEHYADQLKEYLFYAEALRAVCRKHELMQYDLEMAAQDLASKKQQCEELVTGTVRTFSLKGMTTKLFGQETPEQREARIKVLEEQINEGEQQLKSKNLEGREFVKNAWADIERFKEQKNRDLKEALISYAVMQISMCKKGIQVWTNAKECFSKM
# Assays:
# Conditions in all cases: partners not purified
# GFP-SNX4 S448R = target: T1, GFP-SNX4 S448R; assay: co-IP; GST-GFP nanobody (GBP) on glutathione Sepharose beads, 2 h at 4°C with HeLa cell lysate overexpressing GFP-SNX4 (WT or mutant) and HA-SNX32 (WT or mutant); immunoblot anti-GFP and anti-HA
# GFP-SNX4 Y258E = target: T2, GFP-SNX4 Y258E; assay: as above
# GFP-SNX1 = target: T6, GFP-SNX1 (UniProt Q13596 1-522); assay: co-IP; GST-GFP nanobody (GBP) on glutathione Sepharose beads, 2 h at 4°C with HEK293T cell lysate overexpressing GFP-tagged and HA-tagged SNX proteins; washed with PBS; immunoblot anti-GFP and anti-HA
# T6 construct: Sorting nexin 1 (SNX1); pEGFP C1 SNX1, gift from Prof Peter J Cullen; also called GFP-SNX1 WT; source: HEK293T or HeLa, transfected, overexpressed, in lysate
# GFP-SNX8 = target: T3, GFP-SNX8; assay: as above
# GFP-SNX32 WT = target: T4, GFP-SNX32 WT; assay: as above
# GFP-SNX4 = target: T5, GFP-SNX4; assay: co-IP; GST-GFP nanobody (GBP) on glutathione Sepharose beads, 2 h at 4°C with HeLa cell lysate overexpressing GFP-SNX4 (WT or mutant) and HA-SNX32 (WT or mutant); immunoblot anti-GFP and anti-HA
# T6 sequence (Q13596 whole entry): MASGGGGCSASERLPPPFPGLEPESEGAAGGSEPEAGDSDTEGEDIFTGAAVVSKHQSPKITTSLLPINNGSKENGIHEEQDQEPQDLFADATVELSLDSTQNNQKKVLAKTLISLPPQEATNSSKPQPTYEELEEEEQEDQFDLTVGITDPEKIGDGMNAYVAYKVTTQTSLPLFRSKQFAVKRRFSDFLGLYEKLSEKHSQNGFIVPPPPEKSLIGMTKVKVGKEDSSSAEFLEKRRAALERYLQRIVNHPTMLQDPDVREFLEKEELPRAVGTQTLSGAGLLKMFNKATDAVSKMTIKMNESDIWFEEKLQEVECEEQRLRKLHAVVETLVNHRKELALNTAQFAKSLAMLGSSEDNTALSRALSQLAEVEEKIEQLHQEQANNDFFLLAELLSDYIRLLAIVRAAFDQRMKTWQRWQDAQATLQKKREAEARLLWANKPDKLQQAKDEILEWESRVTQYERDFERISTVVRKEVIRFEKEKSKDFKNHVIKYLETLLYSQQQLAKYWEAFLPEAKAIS
binder,measurement,setting,value
"HA-SNX32 FL (natural protein, UniProt Q86XE0 1-403, looked up, Sorting nexin 32 (SNX32), full length (FL); pcDNA3 HA N(I) SNX32 FL, subcloned from pEGFP C1 SNX32 FL; also called HA-SNX32 WT; Sorting nexin 32; source: HEK293T or HeLa, transfected, overexpressed, in lysate) METYAEVGKEGKPSCASVDLQGDSSLQVEISDAVSERDKVKFTVQTKSCLPHFAQTEFSVVRQHEEFIWLHDAYVENEEYAGLIIPPAPPRPDFEASREKLQKLGEGDSSVTREEFAKMKQELEAEYLAIFKKTVAMHEVFLQRLAAHPTLRRDHNFFVFLEYGQDLSVRGKNRKELLGGFLRNIVKSADEALITGMSGLKEVDDFFEHERTFLLEYHTRIRDACLRADRVMRAHKCLADDYIPISAALSSLGTQEVNQLRTSFLKLAELFERLRKLEGRVASDEDLKLSDMLRYYMRDSQAAKDLLYRRLRALADYENANKALDKARTRNREVRPAESHQQLCCQRFERLSDSAKQELMDFKSRRVSSFRKNLIELAELELKHAKASTLILRNTLVALKGEP",ratio of HA to GFP band intensity,GFP-SNX4 S448R,0.23
same,ratio of HA to GFP band intensity,GFP-SNX4 Y258E,0.33
same,ratio of HA to GFP band intensity,GFP-SNX1,0.98
same,ratio of HA to GFP band intensity,GFP-SNX8,0.62
same,ratio of HA to GFP band intensity,GFP-SNX32 WT,0.85
"HA-SNX32 E256R (natural protein, UniProt Q86XE0 1-403, looked up, SNX32 with E256R, by site directed mutagenesis of HA-tagged SNX32; source: HeLa, transfected, overexpressed, in lysate) METYAEVGKEGKPSCASVDLQGDSSLQVEISDAVSERDKVKFTVQTKSCLPHFAQTEFSVVRQHEEFIWLHDAYVENEEYAGLIIPPAPPRPDFEASREKLQKLGEGDSSVTREEFAKMKQELEAEYLAIFKKTVAMHEVFLQRLAAHPTLRRDHNFFVFLEYGQDLSVRGKNRKELLGGFLRNIVKSADEALITGMSGLKEVDDFFEHERTFLLEYHTRIRDACLRADRVMRAHKCLADDYIPISAALSSLGTQRVNQLRTSFLKLAELFERLRKLEGRVASDEDLKLSDMLRYYMRDSQAAKDLLYRRLRALADYENANKALDKARTRNREVRPAESHQQLCCQRFERLSDSAKQELMDFKSRRVSSFRKNLIELAELELKHAKASTLILRNTLVALKGEP",ratio of HA to GFP band intensity,GFP-SNX4,0.66
"HA-SNX32 Q259R (natural protein, UniProt Q86XE0 1-403, looked up, SNX32 with Q259R, by site directed mutagenesis of HA-tagged SNX32; source: HeLa, transfected, overexpressed, in lysate) METYAEVGKEGKPSCASVDLQGDSSLQVEISDAVSERDKVKFTVQTKSCLPHFAQTEFSVVRQHEEFIWLHDAYVENEEYAGLIIPPAPPRPDFEASREKLQKLGEGDSSVTREEFAKMKQELEAEYLAIFKKTVAMHEVFLQRLAAHPTLRRDHNFFVFLEYGQDLSVRGKNRKELLGGFLRNIVKSADEALITGMSGLKEVDDFFEHERTFLLEYHTRIRDACLRADRVMRAHKCLADDYIPISAALSSLGTQEVNRLRTSFLKLAELFERLRKLEGRVASDEDLKLSDMLRYYMRDSQAAKDLLYRRLRALADYENANKALDKARTRNREVRPAESHQQLCCQRFERLSDSAKQELMDFKSRRVSSFRKNLIELAELELKHAKASTLILRNTLVALKGEP",ratio of HA to GFP band intensity,GFP-SNX4,0.75
"HA-SNX32 R220E (natural protein, UniProt Q86XE0 1-403, looked up, SNX32 with R220E, by site directed mutagenesis of HA-tagged SNX32; source: HeLa, transfected, overexpressed, in lysate) METYAEVGKEGKPSCASVDLQGDSSLQVEISDAVSERDKVKFTVQTKSCLPHFAQTEFSVVRQHEEFIWLHDAYVENEEYAGLIIPPAPPRPDFEASREKLQKLGEGDSSVTREEFAKMKQELEAEYLAIFKKTVAMHEVFLQRLAAHPTLRRDHNFFVFLEYGQDLSVRGKNRKELLGGFLRNIVKSADEALITGMSGLKEVDDFFEHERTFLLEYHTEIRDACLRADRVMRAHKCLADDYIPISAALSSLGTQEVNQLRTSFLKLAELFERLRKLEGRVASDEDLKLSDMLRYYMRDSQAAKDLLYRRLRALADYENANKALDKARTRNREVRPAESHQQLCCQRFERLSDSAKQELMDFKSRRVSSFRKNLIELAELELKHAKASTLILRNTLVALKGEP",ratio of HA to GFP band intensity,GFP-SNX4,1.02
"HA-SNX32 R366E (natural protein, UniProt Q86XE0 1-403, looked up, SNX32 with R366E, by site directed mutagenesis of HA-tagged SNX32; source: HeLa, transfected, overexpressed, in lysate) METYAEVGKEGKPSCASVDLQGDSSLQVEISDAVSERDKVKFTVQTKSCLPHFAQTEFSVVRQHEEFIWLHDAYVENEEYAGLIIPPAPPRPDFEASREKLQKLGEGDSSVTREEFAKMKQELEAEYLAIFKKTVAMHEVFLQRLAAHPTLRRDHNFFVFLEYGQDLSVRGKNRKELLGGFLRNIVKSADEALITGMSGLKEVDDFFEHERTFLLEYHTRIRDACLRADRVMRAHKCLADDYIPISAALSSLGTQEVNQLRTSFLKLAELFERLRKLEGRVASDEDLKLSDMLRYYMRDSQAAKDLLYRRLRALADYENANKALDKARTRNREVRPAESHQQLCCQRFERLSDSAKQELMDFKSREVSSFRKNLIELAELELKHAKASTLILRNTLVALKGEP",ratio of HA to GFP band intensity,GFP-SNX4,0.49
